# Measurements published in patent US5882644A, “Monoclonal antibodies specific for the platelet derived growth factor β receptor and methods of use thereof” (Protein Design Labs, Inc., priority 1996, dated 1999).
# Entries after “also recorded” stand apart in the source; their conditions may differ.
# B1: muM4TS.11: murine monoclonal antibody to PDGF-R β, variable regions SEQ ID NOS:10 and 12; epitope in fourth extracellular domain (antibody, V domains shown)
# VL: METETLLLWVLLLWVPGSTGDIVLTQSPPSLAVSLGQRATISCRASESVDSYGNSFMHWYQQKPGQPPKLLIYRASNLESGIPARFSGGGSRTDFTLTINPVEADDVATYYCQQSNEDPPTFGGGTKLEIK
# VH: MERHWIFLFLFSVTAGVHSQVQLQQSGAEVAKPGASVKMSCKASGYTFTNCWMHWVKQRPGQGLEWIGYINPTTGYSEYNQNFKDKATLTADKSSNTAYIQLSSLTSEDSAVYYCTSNYGHYDWFANWGQGTLVT
# Assays:
# PDGF-R β = experiment: Competitive binding with 125I-PDGF BB on transfectant cells expressing PDGF-R β; parameters: species or system human; conditions: 4° C.
# Method: To determine the ability of muM4TS.11 and muM4TS.22 to block binding of PDGF BB to PDGF-R β, the following competitive binding experiments were performed. Transfectant cells expressing PDGF-R β were harvested, washed twice with cold DMEM, and resuspended at 10^6 cells/ml in DMEM. The assay was carried out in triplicate by incubating 100 μl of the cell suspension with either: 1) no antibody (to determine total binding); 2) varying concentrations of antibody; or 3) 100 ng cold PDGF BB (to saturate specific binding sites and determine non-specific binding) for 15 minutes at 4° C. Each sample received 1.0 ng ^125 I-labeled PDGF BB, and was incubated for an additional 60 min at 4° C. Unbound ^125 I-labeled PDGF BB was separated from that bound to the cell by layering the sample over a mixture of 80% dibutylphthalate, 20% olive oil in a microfuge tube, and microfuging briefly to pellet the cells through the oil mixture. The tubes were placed in dry ice to freeze the contents, the tip of the tube containing the cell pellet was cut off into a vial, and radioactivity was determined in a gamma counter.
# To assess the ability of HuM4TS.22 to block the binding of PDGF BB to its receptor, competitive binding experiments of HuM4TS.22 with ^125 I-PDGF BB were performed according to the method described in Example 3.
# To assess the ability of muM4TS.11 and HuM4TS.11 to block the binding of PDGF BB to the PDGF β receptor, competitive binding experiments of these antibodies with ^125 I-PDGF BB were performed according to the method described in Example 3.
# [1] = system: PDGF-R β deletion fusion proteins; experiment: ELISA epitope mapping with PDGF-R β deletion fusion proteins; assay type: binding, human
# From the text: To localize the binding sites of the M4TS antibodies on the PDGF-R, a series of PDGF-R β deletion mutants, each consisting of one or more adjacent domains of the extracellular portion of the receptor, was constructed by standard methods including PCR. The deletion constructs were each cloned into an expression plasmid (FIG. 13A) where they were fused to the constant region of the human lambda-1 immunoglobulin light chain, to facilitate detection in ELISA. The constructs were as follows (see FIG. 13B):
# These PDGF-R β deletion fusion proteins were transiently expressed, by transfecting 10 μg of the respective expression plasmids into approximately 10^7 S194 mouse myeloma cells (ATCC TIB 19) using the DEAE-dextran method in accordance with the method described by Queen et al. (1984) Mol. Cell. Biol. 4:1042. After the transfected cells had died (4-5 days) and been removed by centrifugation, the culture supernatants containing the PDGF-R β deletion proteins were used in ELISA assays, 100 μl/well. First, the relative levels of the various PDGF-R β deletion proteins were measured in an ELISA where the plate was coated with goat anti-human lambda antibody (Tago) and the proteins detected with HRP-conjugated goat anti-human lambda antibody. […] To determine the ability of the antibodies to bind to each deletion protein, an ELISA was performed in which goat anti-human lambda antibody was used to coat the plate, followed by the cell supernatant and then 0.1 μg of the appropriate antibody, and then bound antibody detected with HRP-conjugated goat-anti-mouse Ig or goat-anti-human Ig antibody as appropriate (Tago). As a positive control, purified soluble PDGF-R β (Example 1) was coated directly on certain wells of the plate (denoted D1-5 in FIG. 14).
# [2] = system: CHO transfectant cell line expressing PDGF-R β (CHO C4); experiment: Inhibition of PDGF BB-induced proliferation (3H-thymidine) of CHO C4 cells; assay type: cell-based, Chinese hamster
# Method: To determine the ability of muM4TS.11 and muM4TS.22 to block PDGF-mediated proliferation, a CHO transfectant cell line expressing PDGF-R β (CHO C4) was generated, as described above. Proliferation of this line, as measured by incorporation of ^3 H-thymidine by DNA synthesis, is stimulated several-fold by PDGF BB. The CHO PDGF-R β transfectants were plated in a 96-well tissue culture plate at about 50,000 cells/well in Ham's F-12+10% FCS and incubated for 1-2 days. The medium was removed, and the cells were washed once with serum-free medium (Ham's F-12+1 mg/ml BSA) and incubated in this media for 1-2 days to put them in a quiescent state. The appropriate amount of antibody in serum-free medium was added, and after 1-3 hours, 50 ng/ml PDGF BB was added. After overnight incubation, 1 μCi ^3 H-thymidine was added, and after a final 4 hour incubation, the cells were harvested using a PHD cell harvester (Cambridge Technology) and analyzed with a scintillation counter.
# [3] = system: PDGF-R β expressed on the cell membrane; experiment: Flow cytometry binding to CHO PDGF-R β transfectant cells; parameters: species or system human; conditions: 0.1-1 μg/ml antibody; CHO PDGF-R β transfectants vs untransfected CHO
# Method: The cells were washed once in cold PBS and resuspended in 50 μl of PBS containing 10 μg/ml FITC-conjugated goat anti-mouse IgG and incubated for 30 min. After another wash, the cells were fixed by resuspension in 0.25 ml of paraformaldehyde in PBS, and analyzed for fluorescence by flow cytometry on a FACScan (Becton Dickinson).
# [4] = Pharmacokinetics in rats (plasma antibody by ELISA); assay type: in vivo, rat
# Method: In preliminary experiments to determine the pharmacokinetics of muM4TS.11 in rats, an initial dose of antibody was injected and blood samples obtained at 1, 2, 3, 6, 12, 24, 36, and 48 hr. Antibody levels in plasma were measured by ELISA. The half-life of the antibody in rats was approximately 1 day. […] (In humans, proportionally smaller and less frequent doses are likely to be sufficient for a humanized anti-PDGF-R β antibody such as HuM4TS.11 or HuM4TS.22 to be effective, because of the expected longer half-life in humans and higher affinity for human PDGF-R β of these non-immunogenic HuAbs).
# [5] = system: Rat aortic smooth muscle cells (SMC); experiment: Inhibition of PDGF BB-mediated proliferation of rat aortic smooth muscle cells; assay type: cell-based; conditions: PDGF BB 10 ng/ml, 3H-thymidine 19 to 26 hr
# Method: To determine whether muM4TS.11 inhibits PDGF-mediated proliferation of rat cells in vitro, the following experiment was performed. Rat aortic smooth muscle cells (SMC) were plated at a 1:3 split ratio in 10% FCS and made quiescent 24 hours later by changing the medium to 1% control process serum replacement II (Sigma, St. Louis, Mo.). Three to five days later, the cells were stimulated with PDGF BB (10 ng/ml). At the time of stimulation, increasing doses of the specific MAb or mouse IgG (control) were added. Cell proliferation was determined by measuring ^3 H-thymidine incorporated into DNA when the cells were pulsed from 19 to 26 hr after stimulation. MuM4TS.11 inhibited proliferation in a concentration-dependent manner with an IC50 of about 0.5 μg/ml.
# [6] = system: human primary fibroblast cell line AG1523B; experiment: Inhibition of PDGF BB-stimulated proliferation of AG1523B fibroblasts; assay type: cell-based; conditions: 300 ng/ml PDGF BB
molecule,measurement,setting,value
B1,blocking of 125I-PDGF BB binding to PDGF-R β,PDGF-R β,did not; also recorded: neither muM4TS.11 nor HuM4TS.11 were able to inhibit binding of PDGF BB to its receptor
same,binding to deletion proteins containing only first through third domains,[1]; 0.1 μg antibody,do not bind
same,binding to protein D1-4,[1]; 0.1 μg antibody,do bind to protein D1-4
same,binding to protein D5 (fifth domain only),[1]; separate experiment,"none of muM4TS.11 and HuM4TS.11, muM4TS.22 and HuM4TS.22 bound to it"
same,inhibition of PDGF-mediated proliferation compared with another antibody,[2],about two times more effectively than with HuM4TS.11
same,inhibition of PDGF BB-induced proliferation,"[2]; 50 ng/ml PDGF BB, sufficient antibody concentration",completely inhibited proliferation of the cells induced by PDGF BB; also recorded: almost completely inhibited the stimulation of proliferation by PDGF BB
same,specific binding to membrane PDGF-R β by flow cytometry,[3],specifically bound to CHO PDGF-R β transfectant cells but not to untransfected CHO cells
same,time antibody level stays above the in vitro inhibitory concentration,"[4]; 4 mg bolus, then 2 mg IV every 24 hr for 4 days",at least 7 days
same,half-life of the antibody,"[4]; preliminary experiments, plasma",approximately 1 day
same,IC50 of inhibition of proliferation,[5],about 0.5 μg/ml
same,inhibition of stimulation of proliferation by PDGF BB,[6],effectively inhibited the stimulation of proliferation by PDGF BB
